Data: the supplement of paper PMC9170038

System: MS2 coat protein
Experiment: apparent KD of MS2 coat protein; designed switch direction (-1 OFF switch, 1 ON switch): -1; higher = weaker reporter binding
Method in brief: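 An oligonucleotide input, 200 uM small-molecule ligand, or no input was present during titration of SNAP-549-labelled MS2 coat protein, which was doubled from 0.7 or 1.5 nM to 3 µM. Designed RNA switches had been transcribed on Illumina chips by stalled E. coli RNA polymerase. Apparent KD per design is the median over clusters of curves fitted to normalised cluster fluorescence.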

[1] = Eterna round: R95, input ligand: FMN 200 uM
[2] = Eterna round: R95, input ligand: microRNA oligo, concentration not stated
[3] = Eterna round: R95, input ligand: none
[4] = input ligand: microRNA oligo, concentration not stated

| Sequence | apparent KD of MS2 coat protein (input ligand: FMN 200 uM) [nM] | apparent KD of MS2 coat protein (input ligand: none) [nM] | apparent KD of MS2 coat protein [1] [nM] | apparent KD of MS2 coat protein [2] [nM] | apparent KD of MS2 coat protein [3] [nM] | apparent KD of MS2 coat protein [4] [nM] |
| --- | --- | --- | --- | --- | --- | --- |
| UUUAACGAUGAGGAUAUAUGAUAUCAAAGCAUCAUAGAAGGCAUCACAUGAGGAUCACCCAUGUGAUCUUCUUG [Mat - Exclusion 6 - JL Mod - D28] (Eterna round: R97, puzzle: Exclusion 6) | 94 | 29.4 | – | – | – | – |
| CCUCAACAGUAGGAUAUCAUCAAACUAUUGUGAUGAGAAGGACUGACAUGAGGAUCACCCAUGUUAACGUGAUG [Mod of Brourd - Jieux - Exclusion 6] (Eterna round: R97, puzzle: Exclusion 6) | 176 | 35.8 | – | – | – | – |
| UUUAAUUUUUUUUUUUUACAAGCUUUUUGCUCGUCUUAUACAUGAGGAUCACCCAUGUGAGUGGAAGAUAAAUUAUC [JMF 11] (puzzle: Sensor v3, turn-off variant 2) | – | – | 15.1 | 15 | 17.9 | – |
| UGAGUGCUGCGAGGAUAUACAUGAGGAUCACCCAUGUUUUCGUGUGAGGCUUUGCCUCACACGAUGUAGAAGGCGCAGUACUCU [JL ENG2 1.13] (Eterna round: R96, puzzle: Exclusion NG 2) | 11.5 | 12.8 | – | – | – | 8.16 |
| UAAUAAAGUGUGAGGAUAUGCUGGUCCUUGGAUCAGCAGAAGGCACAUGAGGAUCACCCAUGUAAUAUAUAAAU [Mat - Exclusion 4 - JL Mod - D55] (puzzle: Brourd's mod of Exclusion 4) | – | – | – | 70.4 | – | – |
| UGUACUAACACGAGAGUGUUAGUACUAUAAGCUUGUGUUACAUGAGGAUCACCCAUGUCCUCAUAAGCUCGUCUUGA [Mat - Sensor v3 - Turn-off var 2 - D94] (puzzle: Sensor v3, turn-off variant 2) | – | – | 40.4 | 285 | 34 | – |
| UACGAAGAGUGAGGAUAUGUGCGACAAAGUUGCACAGAAGGCACAUGAGGAUCACCCAUGUGAGCUAGGUCGAAAGACCUAGCG [Omei Exc(NG)1 Av6] (Eterna round: R96, puzzle: Exclusion NG 1) | 37 | 19.7 | – | – | – | 13.6 |
| GAUCCACAUGAGGAUCACCCAUGUGAGGAUAUGUCCAUAUUCGGCAAAUCGGAUAUGGACAGAAGGCACACCGG [JR_Exclusion1_Sub012] (puzzle: Exclusion 1) | – | – | – | 104 | – | – |
| AACCAGCGAGGAUAUGCUUGCGCGUGUUCUGGUUGUAAUCGACUUGAGGAUCACCCAAGUAGAAGGCGCUGCCG [EX2 #51] (Eterna round: R97, puzzle: Exclusion 2) | 100 | 50.9 | – | – | – | – |
| GCACGGAGUGCAGGAUAUCUGUGCGAUUAGCUCAGAGAAGGGCACAUGAGGAUCACCCAUGUGUAUAAACACAAUAAUCCGUGC [Eli exng1 - 068] (Eterna round: R96, puzzle: Exclusion NG 1) | 18.6 | 14 | – | – | – | 9.94 |
| UAACAUGUACAAGGAUAUCAGCACGAUUAGUGCUGAGAAGGUGUAACAUGAGGAUCACCCAUGUAGAUCAUUAAUUAAUUAAUU [ENG1/9-B1] (Eterna round: R96, puzzle: Exclusion NG 1) | 319 | 56.6 | – | – | – | 60.9 |
| GACCAAUAGGUAGGAUAUCAUUGCGAUUAGCUAUGAGAAGGACCACAUGAGGAUCACCCAUGUCCUCUAAUUAGCCAAUUGGUA [8th something] (Eterna round: R96, puzzle: Exclusion NG 1) | 426 | 90.9 | – | – | – | 170 |
| UGCAGACGAGGAUAUAGAUUUAGAUACAUGAGGAUCACCCAUGUAUAGAUGUAUUUAGAUUUAGAAGGCGUCUGCU [E5/13-A4] (Eterna round: R97, puzzle: Exclusion 5) | 156 | 176 | – | – | – | – |
| GUUGUACAUGAGGAUCACCCAUGUCAGGAUAUCCACCUCAGAAAGUAUACAGGAUUGUGGAGAAGGGACAUUAA [EX1 C.18] (Eterna round: R97, puzzle: Exclusion 1) | 56 | 48.5 | – | – | – | – |
| UUUAAUUUUUUUUUUUUACAAGCUUUUUGCUCGUCUUAUACAUGAGGAUCACCCAUGUGGGUGGAGGGUAAAUUAUC [JMF 89] (puzzle: Sensor v3, turn-off variant 2) | – | – | 35.9 | 63.6 | 67 | – |
| CGCAUGUAAGGAUAUUAGUAGUAGUCAGAAUAGACUAUUACUGAGAAGGUACAUGAGGAUCACCCAUGUCAGCG [Eli x4 4.17] (Eterna round: R97, puzzle: Exclusion 4) | 361 | 56.4 | – | – | – | – |
| AAUAAUAAUGUCAGGAUAUCUAGAGCUGCGGCUCUAGAGAAGGGACAUGAGGAUCACCCAUGUCACUCAAUAAU [BmEx4/3-C5] (Eterna round: R97, puzzle: Brourd's mod of Exclusion 4) | 22 | 15.1 | – | – | – | – |

| Sequence | apparent KD of MS2 coat protein (input ligand: FMN 200 uM) [nM] | apparent KD of MS2 coat protein (input ligand: none) [nM] | apparent KD of MS2 coat protein [1] [nM] | apparent KD of MS2 coat protein [2] [nM] | apparent KD of MS2 coat protein [3] [nM] | apparent KD of MS2 coat protein [4] [nM] |
| --- | --- | --- | --- | --- | --- | --- |
| AACAACGUAGGAUAUGCAGCUACGGACUUGAGGAUCACCCAAGUGAUCAUAGCCCGUAUAGCAGAAGGGCGGAUCA [Arontebi] (Eterna round: R97, puzzle: Exclusion 5) | 321 | 224 | – | – | – | – |
| AACCUCGGAGGAUAUACCUACCGAUUCACAAGUGUCACAUCACAUGAGGAUCACCCAUGUAGAAGGUCGAGGCG [Onorzais] (puzzle: Exclusion 2) | – | – | – | 30.1 | – | – |
| GCAACGAGAGGAUAUGCUUAACGACCGGCGGAAGCGGAUCCACAUGAGGAUCACCCAUGUAGAAGGCUCGGACC [Eternabot (Original) Solution 24] (Eterna round: R97, puzzle: Exclusion 2) | 35.8 | 27.4 | – | – | – | – |
| GUUGUUUAUGUAGGAUAUGCCUGGCGUGCCUUUGCAGAAGGACAUGAGGAUCACCCAUGUAACAUGAGGCUCACCCAUGUCGCU [salish99_ExNG1_r04_108] (Eterna round: R96, puzzle: Exclusion NG 1) | 397 | 296 | – | – | – | 159 |
| UAAUAACAAGCAGGAUCCUACAUGAGGAUCACCCAUGUGCUCGUCUUAUAAAGUACUAUCACGAAAGUGAUAGUACU [Mat - Sensor v3 - turn-off var 1 - Eli Mod - D73] (puzzle: Sensor v3, turn-off variant 1) | – | – | 208 | 71.9 | 250 | – |
| CGGCUACGAUGAGGAUAUACGCACAUGAGGAUCACCCAUGUAAAUCACGGGUAAAGAUCGCCAUCGUAGAAGGCAUAAGGGCCC [Orsole] (Eterna round: R96, puzzle: Exclusion NG 2) | 80.3 | 80.2 | – | – | – | 49.6 |
| AGUGGCCGAGGAUAUACAUGAGGAUCACCCAUGUUUUAUGUUGAAACGUUAGCGGCCUGUAGAAGGCGGACCUU [Eternabot (L2) Solution 76] (Eterna round: R97, puzzle: Exclusion 3) | 17.5 | 19.3 | – | – | – | – |
| GAGUGCUGAGGAUAUACAUGAGGAUCACCCAUGUGCUUCAGCUAGGAGACUAGUAUCAGUAGAAGGCAGUACUC [Mod of lroppy 20 - Jieux - Exclusion 3] (Eterna round: R97, puzzle: Exclusion 3) | 57.3 | 14.7 | – | – | – | – |
| ACAAGCUUUUAGAUUUUCAACAUGAGGAUCACCCAUGUUCGUCUUGUGCUCGGGCUUGGGCGGUGUCCGGGUUUGGG [JL TOV1 3.77 sellena mod] (Eterna round: R97, puzzle: Sensor, turn-off variant 1) | 33 | 34.7 | – | – | – | – |
| AAAAGGUCAGGAUAUUCAAGAAAAGAAAAGAAAAGAAAAGAGAAGAAGGGACAUGAGGAUCACCCAUGUAAAAG [Default title] (puzzle: Exclusion 4) | – | – | 24.9 | 18.9 | 13.5 | – |
| ACAUGAGGAUCACCCAUGUCUGGCUGGUCCGUCUCGGCUGUCGAGGAUAUGGCUCGGUGUCCGCGCUAGAAGGCGGGAGCCGGA [Aenatbe mod 77] (Eterna round: R96, puzzle: Exclusion NG 3) | 685 | 78.8 | – | – | – | 58.2 |
| UUAGAUAGGUCAGGAUAUCGAUUAUUGUAUAGUAUGAUUUACAUGAGGAUCACCCAUGUUAAAUACGAGAAGGGACGUUAGAUU [JR_ExcNG2_Sub022] (Eterna round: R96, puzzle: Exclusion NG 2) | – | – | – | – | – | 16.9 |
| CUAUGUUAGCAGGAUAUGCCAUUAUUCCUUUUCGCAGAAGGGCUUACAUGAGGAUCACCCAUGUUACAUUUCUU [JR_E6_Sub085] (puzzle: Exclusion 6) | – | – | – | 13.3 | – | – |
| UAUUAGCAAGUAAGAUCCCACAUGAGGAUCACCCAUGUGCUCGUCAUAUCAGGUACUGUGAGGAAACUCACGGUACG [Sensor-V1 #86] (Eterna round: R97, puzzle: Sensor, turn-off variant 1) | 127 | 169 | – | – | – | – |
| AAGUACCGUCACGAUAGUGAUGGUACAACAAGCGAAUGUACAUGAGGAUCACCCAUGUCCUCUUUUGCUCGUCUUAU [Sensor 3 - 97] (puzzle: Sensor v3, turn-off variant 2) | – | – | 130 | 31.9 | 155 | – |
| GGAUCGAGUGUGAGGAUAUGCUGGUCCUUGGAUCAGCAGAAGGCACAUGAGGAUCACCCAUGUGGAGACGGUCC [JL bmx4 3.17] (puzzle: Brourd's mod of Exclusion 4) | – | – | 298 | 92.4 | 102 | – |
